Laboratory results taken from patent publication US20250122303A1, “TREATMENT AND PREVENTION OF CANCER USING HER3 ANTIGEN-BINDING MOLECULES” (Hummingbird Bioscience Pte. Ltd., priority 2021, published 2025).

Columns and labels:
[1] = type: physicochemical; conditions: 0.2 mg/mL in PBS, three samples
Experimental: 3.4 Analysis of thermostability by Differential Scanning Fluorimetry Briefly, triplicate reaction mixes of antibodies at 0.2 mg/mL and SYPRO Orange dye (ThermoFisher) were prepared in 25 μL of PBS, transferred to wells of MicroAmp Optical 96-Well Reaction Plates (ThermoFisher), and sealed with MicroAmp Optical Adhesive Film (ThermoFisher). Melting curves were run in a 7500 fast Real-Time PCR system (Applied Biosystems) selecting TAMRA as reporter and ROX as passive reference. The thermal profile included an initial step of 2 min at 25° C. and a final step of 2 min at 99° C., with a ramp rate of 1.2%. The first derivative of the raw data was plotted as a function of temperature to obtain the derivative melting curves. Melting temperatures (Tm) of the antibodies were extracted from the peaks of the derivative curves.
The thermostability of the variant was also analysed by Differential Scanning Fluorimetry analysis as described in Example 3.4.

[2] = target: heterodimerisation of HER3 and HER2 (Homo sapiens, UniProt P21860); assay: ELISA inhibition of HER2-HER3 interaction; type: biochemical; conditions: Example 4.1: His-tagged HER2 coated, biotinylated HER3
Experimental: The anti-HER3 antibodies were analysed for their ability to inhibit heterodimerisation of HER3 and HER2. Briefly, 96-well plates (Nunc, Denmark) were coated with 0.1 μg/ml His-tagged HER2 protein in PBS for 16 h at 4° C. After blocking for 1 h with 1% BSA in PBS at room temperature, recombinant biotinylated human HER3 protein was added in the presence of different concentrations of anti-HER3 antibody clone 10D1, and pates were incubated for 1 h at room temperature. Plates were subsequently washed three times, and then incubated with HRP-conjugated secondary antibody for 1 h at room temperature. After washing, plates were developed with colorimetric detection substrate 3,3′,5,5′-tetramethylbenzidine (Turbo-TMB; Pierce, USA) for 10 min. The reaction was stopped with 2M H2SO4, and OD was measured at 450 nm.
Plate-based ELISA dimerisation assays were carried out according to standard protocols. Plates were coated with 1 μg/ml HER2-Fc protein. […] Plates were then washed and incubated for 1 hour with secondary anti-HIS HRP antibody. Plates were washed, treated with TMB for 10 mins and the reaction was stopped using 2M H2SO4 stop solution. The absorbance was read at 450 nm.

[3] = Toxicity in BALB/c mice (haematology, clinical chemistry, observations); type: in vivo, mouse; conditions: single IP dose 1000 μg
Experimental: Hemotoxicity was investigated in an experiment in which 6-8 week old female BALB/c mice (20-25 g) were injected intraperitoneally with a single dose of 1000 μg anti-HER3 10D1 antibody or an equal volume of PBS. Blood samples were obtained at 96 hours post injection and analysed for numbers of different types of white blood cells by flow cytometry and electrolyte indices for NA^+, K^+, and Cl^−.
Mice were also analysed for correlates hepatotoxicity, nephrotoxicity and pancreatic toxicity at 96 hours post injection. […] Left bars represent vehicle, right bars represent 10D1 treatment, end points of the Charles River reference range indicated with dotted lines.
3 mice were injected with each treatment, 4 mice were injected with PBS control. Blood samples were obtained at 96 hours post injection and analysed for RBC indices (total RBC count, haematocrit, haemoglobin, platelet count, mean corpuscular volume, mean corpuscular haemoglobin, mean corpuscular haemoglobin concentration) and WBC indices (total WBC count, lymphocyte count, neutrophil count, monocyte count). Analysis was performed using a HM5 Hematology Analyser.
A further study was performed in the BALB/c mice to assess the toxicological effects of repeat doses of 500 μg (˜25 mg/kg) 10D1 F.FcA or 10D1F.FcB. Antibody was administered once a week for four weeks. Blood was obtained 28 days after the first administration.

[4] = tested on: OvCAR8 cell-line derived mouse model of ovarian carcinoma; assay: OvCAR8 cell-line derived xenograft model; type: in vivo; conditions: OvCAR8, IP biweekly 500 μg, 9 doses
Experimental: (§1) Tumor volumes were measured 3 times a week using a digital caliper and calculated using the formula [L ×W2/2]. Study End point was considered to have been reaches once the tumors of the control arm measured >1.5 cm in length.
The model was established by subcutaneous injection of 1×10^6 OvCAR8 cells into the right flanks of female NCr nude mice (n=6 mice per treatment group).
10D1 was administered IP, biweekly at 500 μg per dose (for a total of 9 doses); a control treatment group received an equal volume of PBS.
Tumour cells were inserted with matrigel subcutaneously into the right flanks of female NCr nude mice.
Murine tumour efficacy studies were performed using cell-line derived xenograft (CDX) models in mice. Female NCr nude mice (5-8 weeks old, 21-29 g) were subcutaneously implanted with N87, A549, FaDu, OvCAR8 cells. Treatment was initiated when tumours reached approximately 100 to 200 mm^3. Vehicle (PBS) or therapeutic antibodies (25 mg/kg) were administered intraperitoneally (IP) at indicated time points (weekly FaDu and OvCAR8, twice weekly N87 and A549). Tumours were measured twice per week using a calliper and tumour volume (mm^3) was calculated. Each data point represents the mean tumour volume ±SEM (n=8 mice).

[5] = tested on: HCC-95 cell-line derived mouse model of squamous cell lung carcinoma; assay: HCC-95 cell-line derived xenograft model; type: in vivo; conditions: HCC-95, IP biweekly 500 μg, 4 doses
Experimental: as §1
The model was established by subcutaneous injection of 1×10^6 HCC-95 cells into the right flanks of female NCr nude mice (n=6 mice per treatment group).
10D1 was administered IP, biweekly at 500 μg per dose (for a total of 4 doses); a control treatment group received an equal volume of PBS.

[6] = tested on: ACHN cell-line derived mouse model of renal cell carcinoma; assay: ACHN cell-line derived xenograft model; type: in vivo; conditions: IP biweekly 500 μg, 7 doses
Experimental: as §1
The model was established by subcutaneous injection of 1×10^6 ACHN cells into the right flanks of female NCr nude mice (n=6 mice per treatment group).
10D1 was administered IP, biweekly at 500 μg per dose (for a total of 7 doses); a control treatment group received an equal volume of PBS.

B1: 10D1: anti-HER3 antibody clone, VH SEQ ID NO:24, VL SEQ ID NO:74; [1] of Example 2.2 (antibody, V domains shown)
VH: DVQLQESGPDLVKPSQSLSLTCTVTGYSITSGYSWHWIRQFPGNKLEWMGSIHYSGGTNYNPSLKSRISITRDTSKNQFFLQLNSVTTEDTATYFCARMTTAPRYPFDYWGQGTTLTVSS
VL: DIVMTQSQKFMSTSVGDRVSVTCKASQIVGSNVAWYQQKPGQSPKPLIYSASYRYSGVPDRFTASGSGTDFTLTITNVQSEDLAEYFCQQYSSHPLTFGAGTKLELK
Tm [1]: 70.3 °C
inhibition of interaction between HER2 and HER3 [2]: inhibit interaction between HER2 and HER3 in a dose-dependent fashion
clinical signs, gross necroscopy or weight [3]: No differences
kidney, liver or pancreatic indices ([3]; 96 hours): no effect on the kidney, liver or pancreatic indices
numbers of different blood cell types and electrolyte indices ([3]; 96 hours): within the Charles River reference range
inhibition of tumor growth [4]: ~74%
inhibition of tumor growth [5]: ~90%
inhibition of tumor growth [6]: ~61%
